Measured values as given in US20190389961A1 (INNATE PHARMA, published 2019).

Tests used:
[1] = biological target: T1, cynomolgus (Macaca fascicularis) CD39 expressed on CHO cells (cynomolgus (Macaca fascicularis), UniProt A0A7N9DGH8 1-510); test: flow cytometry titration on CHO-cyCD39 cells
T1 construct: whole, on cells; also called CHO-cyCD39; cyCD39
T1 sequence: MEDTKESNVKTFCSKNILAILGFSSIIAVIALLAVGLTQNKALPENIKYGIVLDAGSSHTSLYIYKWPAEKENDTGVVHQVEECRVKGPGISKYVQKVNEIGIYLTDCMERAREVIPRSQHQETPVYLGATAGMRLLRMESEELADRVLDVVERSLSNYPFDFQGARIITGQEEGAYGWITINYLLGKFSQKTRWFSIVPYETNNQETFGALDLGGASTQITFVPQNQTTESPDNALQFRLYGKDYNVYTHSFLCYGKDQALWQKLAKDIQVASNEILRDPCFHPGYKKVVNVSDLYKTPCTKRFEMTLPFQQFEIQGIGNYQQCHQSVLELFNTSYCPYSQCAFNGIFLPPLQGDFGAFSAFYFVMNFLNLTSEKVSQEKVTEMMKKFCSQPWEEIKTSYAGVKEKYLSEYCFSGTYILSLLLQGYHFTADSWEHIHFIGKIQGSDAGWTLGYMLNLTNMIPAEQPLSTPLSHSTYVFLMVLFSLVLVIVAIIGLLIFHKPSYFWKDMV
Procedure: Cells were incubated with various concentration of unlabeled anti-CD39 antibody from 30 μg/ml to 5×10-⁴ μg/ml, for 30 minutes at 4° C. After washes, cells were incubated with Goat anti-mouse H+L labeled secondary antibody for 30 min at 4° C.

human CD39 mutant 5 = biological target: T2, human CD39 mutant 5 (human, UniProt P49961 1-510); test: flow cytometry on Hek-293T cells expressing CD39 mutant 5 (panel M5); unstained (US) median 8,98; antibody concentration not shown
T2 construct: Expressed on Hek-293T cells; also called M5
T2 chain: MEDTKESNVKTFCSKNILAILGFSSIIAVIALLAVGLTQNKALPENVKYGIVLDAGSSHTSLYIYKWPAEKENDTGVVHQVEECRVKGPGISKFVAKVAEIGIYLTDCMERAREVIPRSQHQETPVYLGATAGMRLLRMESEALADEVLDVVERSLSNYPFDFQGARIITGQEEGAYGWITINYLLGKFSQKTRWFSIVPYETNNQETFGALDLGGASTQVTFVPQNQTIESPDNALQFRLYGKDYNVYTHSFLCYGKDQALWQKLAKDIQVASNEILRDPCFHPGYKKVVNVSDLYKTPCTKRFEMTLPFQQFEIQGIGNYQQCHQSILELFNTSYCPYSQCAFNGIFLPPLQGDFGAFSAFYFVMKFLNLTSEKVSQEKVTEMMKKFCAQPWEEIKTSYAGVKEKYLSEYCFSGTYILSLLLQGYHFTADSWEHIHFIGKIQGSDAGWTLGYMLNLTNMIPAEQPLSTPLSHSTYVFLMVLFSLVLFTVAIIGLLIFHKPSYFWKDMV
Procedure: (§1) Mutants were transfected in Hek-293T cells, as shown in the table 1, using numbering of SEQ ID NO: 1. […] Mutant 19 includes substitutions at residues R138, M139 and E142.
(§2) In order to define the epitopes of the further anti-CD39 antibodies of Example 5, they were tested for loss of binding to the panel of CD39 mutants as described in Example 1 and Table 1. Mutants were transfected in Hek-293T cells, as shown in the table 1, using numbering of SEQ ID NO: 1.Dose-ranges of test antibodies (10-2.5-0.625-0.1563-0.0391-0.0098-0.0024-0.0006 μg/ml) are tested on the 20 generated mutants by flow cytometry.

human CD39 mutant 19 = biological target: T3, human CD39 mutant 19 (human, UniProt P49961 1-510); test: flow cytometry on Hek-293T cells expressing CD39 mutant 19 (panel M19)
T3 construct: Expressed on Hek-293T cells; also called M19
T3 chain: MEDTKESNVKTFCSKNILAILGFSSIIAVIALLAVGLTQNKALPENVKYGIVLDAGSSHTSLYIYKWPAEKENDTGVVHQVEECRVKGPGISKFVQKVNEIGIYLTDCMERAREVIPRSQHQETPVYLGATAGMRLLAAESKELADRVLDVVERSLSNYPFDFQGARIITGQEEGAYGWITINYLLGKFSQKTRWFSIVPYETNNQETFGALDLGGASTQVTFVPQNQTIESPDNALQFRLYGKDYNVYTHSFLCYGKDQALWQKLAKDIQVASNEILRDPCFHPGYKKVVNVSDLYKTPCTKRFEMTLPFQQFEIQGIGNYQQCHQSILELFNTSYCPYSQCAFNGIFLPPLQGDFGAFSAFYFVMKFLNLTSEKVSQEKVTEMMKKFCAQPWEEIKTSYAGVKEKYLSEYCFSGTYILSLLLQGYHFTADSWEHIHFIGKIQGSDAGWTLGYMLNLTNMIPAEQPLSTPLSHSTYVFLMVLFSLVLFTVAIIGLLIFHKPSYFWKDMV
Procedure: as §1, §2

human CD39 mutant 15 = biological target: T4, human CD39 mutant 15 (human, UniProt P49961 1-510); test: flow cytometry on Hek-293T cells expressing CD39 mutant 15 (panel M15); unstained (US) median 8,98; antibody concentration not shown
T4 construct: Expressed on Hek-293T cells; also called M15
T4 chain: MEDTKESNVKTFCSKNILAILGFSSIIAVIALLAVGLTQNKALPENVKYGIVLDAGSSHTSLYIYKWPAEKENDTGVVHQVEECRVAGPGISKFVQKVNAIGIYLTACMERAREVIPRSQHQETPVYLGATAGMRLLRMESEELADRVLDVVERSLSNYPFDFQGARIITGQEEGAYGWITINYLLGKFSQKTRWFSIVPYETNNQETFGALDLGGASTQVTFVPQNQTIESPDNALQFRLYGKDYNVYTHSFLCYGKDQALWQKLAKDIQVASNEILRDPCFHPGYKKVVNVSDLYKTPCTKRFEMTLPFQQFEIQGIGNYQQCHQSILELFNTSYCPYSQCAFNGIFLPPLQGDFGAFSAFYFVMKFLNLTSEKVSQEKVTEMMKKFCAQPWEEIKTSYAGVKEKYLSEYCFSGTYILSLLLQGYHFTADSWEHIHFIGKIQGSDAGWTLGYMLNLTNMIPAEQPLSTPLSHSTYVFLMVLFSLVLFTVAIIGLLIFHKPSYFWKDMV
Procedure: as §1, §2

B1: antibody I-394 (antibody, V domains shown)
VH: EVQLQQSGPELVKPGASVKMSCKASGYTFTDYNMHWVKQSHGRTLEWIGYIVPLNGGSTFNQKFKGRATLTVNTSSRTAYMELRSLTSEDSAAYYCARGGTRFAYWGQGTLVTVSA
VL: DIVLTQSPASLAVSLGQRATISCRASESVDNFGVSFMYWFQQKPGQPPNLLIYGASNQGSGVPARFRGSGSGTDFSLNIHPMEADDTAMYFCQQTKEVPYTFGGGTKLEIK
notes: Mouse variable regions; Produced in CHO with human IgG1 constant domains carrying L234A/L235E/G237A/A330S/P331S (Kabat EU numbering) and a human Ck constant domain
EC50 (read off the curve) [1]: ~0.4 µg/mL
Median : Comp-Alexa Fluor 647-A (human CD39 mutant 5): 1470
binding result (human CD39 mutant 19): no binding
Median : Comp-Alexa Fluor 647-A (human CD39 mutant 15): 6360
